This is an account of results in the DeepSol protein solubility set.

The nature of this series: soluble on expression in E. coli; label from the status in PepcDB or PDB records.
Turning to “MSLIQTIENRLINGGELTLEEALLLASSADKEALYEAAHRITRYFMGDKFDTCSIINAKSGNCPEDCKWCAQSRHYAASIEKYGLLSAAVCAEQAAYNRRQGIGRFSLVASGRTASMNEIRQMAESYRAIKQRTDIKCCASLGLLSEEKLQILFDNGVTTYHCNMETAPSFFPSLCSTHTQDEKLATIRAARRVGMRVCSGGIIGMGETMEQRIEFAFYLHSINVYSIPINILQPIPGTPLERTLPLSEEEYLTTVALFRLINPRAFLRFSGGRAQLSPAVQRKAIYIGINAAITGDLLTTTGSKAAEDMQLVRECGFQVTNDTDWEVSYDHEGHHHHHH”, the “soluble on expression in E. coli” value is reported as “not soluble”. “MSLIRCTDINEITPFSSFISKIPNHCGTHMDASRHFVKDGLSINELPIGYFCHKDVVLLEVPKGEAEGITKEDLEPYAAILAQVSFAFLCTGFEKYRTENPLIYQNEGPYIATSAGKYLSDNYPNLKGVGIWFPCTWFAVFSCTEGHHHHHH”: the “soluble on expression in E. coli” value is reported as “not soluble”. With “MSLKAAVYEGKKAIKMTELPTPKAGPNDVVIQNIYAGICGSDVAVYNHGSGTGHKIETDHEFGHEAVSKVVEVGDDVHDFKIGDRVYPYPLLARGDPSRAGSMGGFSEYILIPNAKLNRQLYLVPKEIDNHVAAMIEPFTVGTRAAKQTRPDKNDNAIVYGTGTIGMAAAVALKHLGVKQVMLVDLSDYRLNVAKELGFLTVNSSRDDVRSQAIEAFGKAEYSLHGEAPDTQIFLDAAGHNSILEDFLQFGPVGSRFVTVGVNNSKPQIDFLELIFGSKSVGGSGGYRPEDVQTVFEIMKERQSDLRKMVSQEFDWQDLEKGIQTATDTTISEKVLINYHEGHHHHHH” the entry was “soluble”; with “MSLKARSPYSPAEEDALFMDLPTGPRGQQAQPQRAEKNGMLPASYGPGEQNGTGGYQRAFPPRTNPEKHSQRKSNLAQVEHWARAQKGDSRSLPLDQTLPRQGPGQSLSFPENYQTLPKSTRHPSGGSSPPPRNLPSDYKYAQDRASHLKMSSEERRAHRDGTVWQLYEWQQRQQFRHGSPTAPICLGSPEFTDQGRSRSMLEVPRSISVPPSPSDIPPPGPPRVFPPRRPHTPAERVTVKPPDQRRSVDISLGDSPRRARGHAVKNSSHVDRRSMPSMGYMTHTVSAPSLHGKSADDTYLQLKKDLEYLDLKMTGRDLLKDRSLKPVKIAESDTDVKLSIFCEQDRVLQDLEDKIRALKENKDQLESVLEVLHRQMEQYRDQPQHLEKIAYQQKLLQEDLVHIRAELSRESTEMENAWNEYLKLENDVEQLKQTLQEQHRRAFFFQEKSQIQKDLWRIEDVTAGLSANKENFRILVESVKNPERKTVPLFPHEGHHHHHH”, “not soluble”; with “MSLKAVTQCSQFFHEVSLPHLKPETTYYYRIPAANGTTESDILSFTTARAPGDKRSFTVAVLNDMGYTNAQGTHRQLLKAANEGAAFAWHGGDLSYADDWFSGILPCADDWPVCYNGTSTQLPGGGPIPEEYKQPLPQGETANQGGPQGGDMSVLYESNWDLWQQWMTNLTVKIPHMVMPGNHESACAEFDGPGNPITAYLNEGIPNGTWPAENLTYYSCPPSQRNFTAFQHRFHMPGKETGGVGNFWYSFDYGLAHFVSLDGETDFANSPFSTFERDLTGNETHPRPEETETTDSGPFGTIDGDRYDDNTAYAQYQWLKRDLASVDRTKTPWVFVMSHRPMYSSAYSSYQTNVRNAFENLLLQYGVDAYLSGHIHWYERMFPMTANGTIDESSIADNHTYTTNSGKSMTHIINGMAGNIESHSWFDEGEGLTEITAKLDRTHFGFSKLTVVNETVVNWEFVKGDDGSTGDWLTLVKGETCTINEGHHHHHH”, “not soluble”.

Turning to “MSLKCETERSKTWNNFGNGIPCVLGIDEAGRGPVLGPMVYAAAISPLDQNVELKNLGVDDSKALNEAKREEIFNKMNEDEDIQQIIAYALRCLSPELISCSMLKRQKYSLNEVSHEAAITLIRDALACNVNVVEIKVDTVGPKATYQAKLEKLFPGISICVTEKADSLFPIVSAASIAAKVTRDSRLRNWQFREKNIKVPDAGYGSGYPGDPNTKKFLQLSVEPVFGFCSLVRSSWKTASTIVEKRCVPGSWEDDEEEGKSQSKRMTSWMVPKNETEVVPKRNVYFKERHMSNILTF”, the “soluble on expression in E. coli” value is “not soluble”. In the case of “MSLKDMIDSIEQFAQTQADFPVYDCLGERRTYGQLKRDSDSIAAFIDSLALLAKSPVLVFGAQTYDMLATFVALTKSGHAYIPVDVHSAPERILAIIEIAKPSLIIAIEEFPLTIEGISLVSLSEIESAKLAEMPYERTHSVKGDDNYYIIFTSGTTGQPKGVQISHDNLLSFTNWMIEDAAFDVPKQPQMLAQPPYSFDLSVMYWAPTLALGGTLFALPKELVADFKQLFTTIAQLPVGIWTSTPSFADMAMLSDDFCQAKMPALTHFYFDGEELTVSTARKLFERFPSAKIINAYGPTEATVALSAIEITREMVDNYTRLPIGYPKPDSPTYIIDEDGKELSSGEQGEIIVTGPAVSKGYLNNPEKTAEAFFTFKGQPAYHTGDIGSLTEDNILLYGGRLDFQIKYAGYRIELEDVSQQLNQSPMVASAVAVPRYNKEHKVQNLLAYIVVKDGVKERFDRELELTKAIKASVKDHMMSYMMPSKFLYRDSLPLTPNGKIDIKTLINEVNNREGHHHHHH”, the “soluble on expression in E. coli” value is “soluble”. As to “MSLKEDYADVRNVMIMGGSRIAVRTAQYVPDYMQVKIVDNDINRCNRLTELLDDKTMIINGDGRDMDLLIEEGLKNTEAFVALTDNSETNILACLAAKRMGVEKTVAEVENIDYIGMAESLDIGTVINKKMIAASHIYQMMLDADVSNVKCLTFANADVAEFTVPAGAKITKNLIKDLGLPKGTTIGGMIRNGEGVLVTGDTLIRPGDHVVVFCLSMMIKKIEKFFNEGHHHHHH”, the “soluble on expression in E. coli” value was “not soluble”.

In the case of “MSLKFIEKMLPEESPIDLLINLSRRGEAAVVLLKDAIEDYFTGKFGEGHLNRVISLERESDEIKSKLKKMYLKMKYTYFEKDDFLYIVHKADEILDVVRDIVIMLDMNRVEDVPENIKELFAELVENVLDTIRETTEAIEQLRTLAESGFSPFEKEKEEREIFDVSMEEREVDTISRNLGKKLYSLKNSMNPVDLIFLNKVARLISKIADQGKDITKRINSILREGHHHHHH”, the “soluble on expression in E. coli” value is “soluble”. On to “MSLKGRPIKEFSLVMDLSQAKKGADKMGYMEDLRKRVGTRPLILPASVVIILNEQDEILLQKRLDGRWGLPGGLMELGESFEETAKREILEETGLTIKNVTFLDVFSGKDLYVKVENGDEFYAVTALFMTREVAGGIQMDPRESLDLQYIALDQFPPNVTRTSKIFLDRFMELKEGHHHHHH”, for which the “soluble on expression in E. coli” value is listed as “soluble”. As for “MSLKGYPFLDKANAPFVDRHVTKAGEIFYPWDGKRIDGFGLIGAPLSKSSISHSGASFAPTVIRKCLHAFSTYSVEEDLDLAQLKLTDLGDITMHVTDIVGSQARIEETMTKLLENEQNWQPIVLGGDHSISFPSIKAFASAKGTIGVIQFDAHHDLRNLEDGGPCNGTPFRSLLETGSLVGEHLVQIGIRDFSNSYPYRKYAEKHGVKVYTMKDVNARGLLTILDEAVAKLKRSVDVIYVSVDMDVLDQAHAPGCPAIGPGGMDSTTLLQGIFHLGKDSLVQGMDIVEVDPTLDFREMTSRAAAHVILNYLKGKCIKSEGHHHHHH”, the “soluble on expression in E. coli” value is “soluble”.

On to “MSLKGYYSNKISLEDLNKNIEDKKEQTIYFYQTSCVHCQKVSPIVVPLAKDLNVDMKVIDIENLNEPWDKYNIQGTPTIIHFKDGKEVSRISGEQSKDKFKEWFEQTKKEGHHHHHH”, for which the “soluble on expression in E. coli” value is “soluble”. With “MSLKHEQIINEKIIIDTSIFTNPEVYQTFGNDPTDALRSFLEIISKLKGPIFYMPQTIYEELLNFVEIKDIQVDLQMLLQQKSPKRYELTVPAFLLYELIEDVRLRIDKGLRVAETAVRETSPDTEPEAIANLRKKYRMALREGIIDSKEDVDLILLAKEMDGIMMTADTGIVKWADKLGIRYIDPRMLRSILDKLAAASEGHHHHHH” the entry was “soluble”. With “MSLKHLTEMVRQHKAGKTNGIYAVCSAHPLVLEAAIRYASANQTPLLIEATSNQVDQFGGYTGMTPADFRGFVCQLADSLNFPQDALILGGDHLGPNRWQNLPAAQAMANADDLIKSYVAAGFKKIHLDCSMSCQDDPIPLTDDIVAERAARLAKVAEETCLEHFGEADLEYVIGTEVPVPGGAHETLSELAVTTPDAARATLEAHRHAFEKQGLNAIWPRIIALVVQPGVEFDHTNVIDYQPAKASALSQMVENYETLIFEAHSTDYQTPQSLRQLVIDHFAILKVGPALTFALREALFSLAAIEEELVPAKACSGLRQVLEDVMLDRPEYWQSHYHGDGNARRLARGYSYSDRVRYYWPDSQIDDAFAHLVRNLADSPIPLPLISQYLPLQYVKVRSGELQPTPRELIINHIQDILAQYHTACEGQEGHHHHHH” the entry was “soluble”. As for “MSLKICNFRAHYSPTMLSYVIIFMVEKMNYIKINLKLNNPLAFWANFSESERFFWFDPQKETFVIGCERLKAIDLEHDKFSDYTYLFHSQTFFDDIKGELWENFGGETIAFKHYFVVNKENSYTLTCDSPREIPEITIPKFKHQLTEKASDFSAWQELFYAIQKNFADGKSRKIVASRELEFTSQTSFELESIIQNLLDNNPNAFIFAYQKGKRIFLGASPEILVQKENDQLLSYALAGTFPKTMENAGQKLLTDPKNLLEHDIVVQKIKRNLLEKAETVTVGTTELMELKNVYHLRTILSAKNSELSLIDWTKQLHPTPALGGEPRHEALEFLRKHENHERGLYAAPLGLIDSKGNGTMIVGIRSALIVDKKLYAYAGCGIIPSSDALEEFRETKVKLKTILEALEGHHHHHH”, the “soluble on expression in E. coli” value is recorded as “not soluble”.

In the case of “MSLKIFGTDGVRGKAGVKLTPMFVMRLGIAAGLYFKKHSQTNKILIGKDTRKSGYMVENALVSALTSIGYNVIQIGPMPTPAIAFLTEDMRCDAGIMISASHNPFEDNGIKFFNSYGYKLKEEEEKAIEEIFHDEELLHSSYKVGESVGSAKRIDDVIGRYIAHLKHSFPKHLNLQSLRIVLDTANGAAYKVAPVVFSELGADVLVINDEPNGCNINDQCGALHPNQLSQEVKKYRADLGFAFDGDADRLVVVDNLGNIVHGDKLLGVLGVYQKSKNALSSQAVVATNMSNLALKEYLKSQDLELKHCAIGDKFVSECMQLNKANFGGEQSGHIIFSDYAKTGDGLVCALQVSALVLESKQVSSVALNPFELYPQSLVNLNVQKKPPLESLKGYSALLKELDKLEIRHLIRYSGTENKLRILLEAKDEKLLESKMQELKEFFEGHLCEGHHHHHH”, the “soluble on expression in E. coli” value was “soluble”. For “MSLKIIILGAGQVGGTLAENLVGENNDITVVDKNADRLRDLQDKYDLRVVNGHASHPDVLREAGAQDADMLVAVTNTDETNMAACQVAFTLFNTPNRIARIRSPQYLAEKEALFQSGAVPVDHLIAPEELVTSYIERLIQYPGALQVVSFAEEKVSLVAVKAYYGGPLVGNALSALRDHMPHIDTRVAAIFRQGRPIRPQGTTIIEADDEVFFVAASNHIRSVMSELQRLEKPYRRIMIVGGGNIGASLAKRLEQTYSVKLIEHNYQRAEQLSEQLENTIVFCGDAADQELLSEENIDQVDVFIALTNEDETNIMSAMLAKRMGAKKAMVLIQRSGYVDLVQGGVIDVAISPQQATISALLTHVRRADIVNVSSLRRGAAEAIEAIAHGDESTSKVVGRAVGDIKLPPGTTIGAIVRGEEVLIAHDRTVIEQDDHVVMFLVDKKYVPDVETLFQPSPFFLEGHHHHHH”, the “soluble on expression in E. coli” value is recorded as “soluble”.

In the case of “MSLKIIPYSVNVMDEHGVIIASGEPSRLRQRHEGAILALKENRIVEIDSATANQLKGVRSGINLPISFHEQLIGVVGITGEPEEVRAYAELVKMAAELVIEHMVLIEQRQWDKRYREELINQLILRENSTESLRSMAAYLGIDLAVPRVVLIIELSQPDREALRNVMDYFENHARNHLVTFTEFNELIIIKPITLKEGKWNTRQEMGELQIFKSWAASSGFSRILVGGYFAGETGLHRSLLTARATQAMAKRQKLRSQYIFYHDHALPALLSGLSESWQVQELSRLWLQLVQHDAKGVLQQTLRTWFEHNCDLTQTAKALHIHVNTLRYRLQRCEDITHIKINELKSTLWLYIGMELQAESVSSDKLPLPGREGHHHHHH”, the “soluble on expression in E. coli” value is on record as “not soluble”.
